± gives the uncertainty stated by the source.
Assay: abundance fitness (aPCA) (normalised: wild type 0, dead -1); higher = more abundant; growth selection in yeast, the domain comes from the species named
Conditions: Homo sapiens
Substance “E3 ubiquitin-protein ligase NEDD4-like G207D, Q96PU5” has an abundance fitness of -0.162 ± 0.056.
In the case of “E3 ubiquitin-protein ligase NEDD4-like T218D, Q96PU5”, the abundance fitness is reported as -0.347 ± 0.096.
Work on “E3 ubiquitin-protein ligase NEDD4-like P197R, Q96PU5” yielded an abundance fitness of 0.093 ± 0.057.
In the case of “E3 ubiquitin-protein ligase NEDD4-like N215Q, Q96PU5”, the abundance fitness is reported as -0.081 ± 0.091.
For “E3 ubiquitin-protein ligase NEDD4-like D228N, Q96PU5”, the abundance fitness was 0.063 ± 0.097.
Work on “E3 ubiquitin-protein ligase NEDD4-like S230R, Q96PU5” yielded an abundance fitness of -0.095 ± 0.066.
Substance “E3 ubiquitin-protein ligase NEDD4-like T219I, Q96PU5” has an abundance fitness of -0.56 ± 0.081.
“E3 ubiquitin-protein ligase NEDD4-like N215C, Q96PU5” showed an abundance fitness of -0.178 ± 0.084.
“E3 ubiquitin-protein ligase NEDD4-like Q187T, Q96PU5” gave an abundance fitness of 0.016 ± 0.09.
Substance “E3 ubiquitin-protein ligase NEDD4-like P192H, Q96PU5” has an abundance fitness of -0.1 ± 0.071.
With “E3 ubiquitin-protein ligase NEDD4-like L206M, Q96PU5” the abundance fitness was -0.083 ± 0.096.
Work on “E3 ubiquitin-protein ligase NEDD4-like L195S, Q96PU5” yielded an abundance fitness of -0.182 ± 0.33.
Work on “E3 ubiquitin-protein ligase NEDD4-like T209S, Q96PU5” yielded an abundance fitness of 0.036 ± 0.073.
For “E3 ubiquitin-protein ligase NEDD4-like P196N, Q96PU5”, the abundance fitness was -0.228 ± 0.11.
In the case of “E3 ubiquitin-protein ligase NEDD4-like N213Y, Q96PU5”, the abundance fitness is reported as -0.349 ± 0.39.
For “E3 ubiquitin-protein ligase NEDD4-like W221V, Q96PU5”, the abundance fitness was -0.123 ± 0.066.
With “E3 ubiquitin-protein ligase NEDD4-like H186F, Q96PU5” the abundance fitness was -0.111 ± 0.12.
Substance “E3 ubiquitin-protein ligase NEDD4-like T218Y, Q96PU5” has an abundance fitness of 0.211 ± 0.1.
With “E3 ubiquitin-protein ligase NEDD4-like V203Q, Q96PU5” the abundance fitness was 0.019 ± 0.093.
With “E3 ubiquitin-protein ligase NEDD4-like T218Q, Q96PU5” the abundance fitness was -0.218 ± 0.095.
For “E3 ubiquitin-protein ligase NEDD4-like S225D, Q96PU5”, the abundance fitness was -0.006 ± 0.065.
“E3 ubiquitin-protein ligase NEDD4-like Y210N, Q96PU5” gave an abundance fitness of -0.589 ± 0.095.
Work on “E3 ubiquitin-protein ligase NEDD4-like N213G, Q96PU5” yielded an abundance fitness of -0.326 ± 0.084.
In the case of “E3 ubiquitin-protein ligase NEDD4-like N216A, Q96PU5”, the abundance fitness is reported as 0.016 ± 0.056.
Substance “E3 ubiquitin-protein ligase NEDD4-like L206V, Q96PU5” has an abundance fitness of -0.056 ± 0.062.
“E3 ubiquitin-protein ligase NEDD4-like E189L, Q96PU5” showed an abundance fitness of -0.278 ± 0.065.
For “E3 ubiquitin-protein ligase NEDD4-like R223M, Q96PU5”, the abundance fitness was -0.28 ± 0.067.
In the case of “E3 ubiquitin-protein ligase NEDD4-like P193V, Q96PU5”, the abundance fitness is reported as -0.003 ± 0.054.
“E3 ubiquitin-protein ligase NEDD4-like H222T, Q96PU5” showed an abundance fitness of 0.081 ± 0.076.
For “E3 ubiquitin-protein ligase NEDD4-like P194M, Q96PU5”, the abundance fitness was 0.013 ± 0.072.
“E3 ubiquitin-protein ligase NEDD4-like Q187N, Q96PU5” showed an abundance fitness of -0.001 ± 0.072.
“E3 ubiquitin-protein ligase NEDD4-like H222Q, Q96PU5” gave an abundance fitness of -0.022 ± 0.1.
Work on “E3 ubiquitin-protein ligase NEDD4-like G198E, Q96PU5” yielded an abundance fitness of -0.691 ± 0.092.
“E3 ubiquitin-protein ligase NEDD4-like H222V, Q96PU5” gave an abundance fitness of -0.045 ± 0.059.
With “E3 ubiquitin-protein ligase NEDD4-like T209Y, Q96PU5” the abundance fitness was -0.649 ± 0.11.
“E3 ubiquitin-protein ligase NEDD4-like R223A, Q96PU5” gave an abundance fitness of -0.175 ± 0.066.
For “E3 ubiquitin-protein ligase NEDD4-like T219H, Q96PU5”, the abundance fitness was -0.232 ± 0.099.
For “E3 ubiquitin-protein ligase NEDD4-like D228R, Q96PU5”, the abundance fitness was -0.101 ± 0.061.
“E3 ubiquitin-protein ligase NEDD4-like Q220C, Q96PU5” gave an abundance fitness of -0.06 ± 0.071.
“E3 ubiquitin-protein ligase NEDD4-like H222L, Q96PU5” showed an abundance fitness of -0.088 ± 0.056.
In the case of “E3 ubiquitin-protein ligase NEDD4-like R223H, Q96PU5”, the abundance fitness is reported as -0.18 ± 0.13.
Substance “E3 ubiquitin-protein ligase NEDD4-like P197H, Q96PU5” has an abundance fitness of -0.097 ± 0.085.
With “E3 ubiquitin-protein ligase NEDD4-like R217Y, Q96PU5” the abundance fitness was -0.179 ± 0.084.
For “E3 ubiquitin-protein ligase NEDD4-like E232V, Q96PU5”, the abundance fitness was -0.901 ± 0.18.
“E3 ubiquitin-protein ligase NEDD4-like Y210L, Q96PU5” showed an abundance fitness of -0.261 ± 0.058.
Substance “E3 ubiquitin-protein ligase NEDD4-like R223P, Q96PU5” has an abundance fitness of -0.145 ± 0.11.
With “E3 ubiquitin-protein ligase NEDD4-like K202N, Q96PU5” the abundance fitness was -0.01 ± 0.11.
In the case of “E3 ubiquitin-protein ligase NEDD4-like T218C, Q96PU5”, the abundance fitness is reported as -0.031 ± 0.076.
With “E3 ubiquitin-protein ligase NEDD4-like P194D, Q96PU5” the abundance fitness was -0.008 ± 0.09.
“E3 ubiquitin-protein ligase NEDD4-like P197W, Q96PU5” gave an abundance fitness of -0.237 ± 0.089.
For “E3 ubiquitin-protein ligase NEDD4-like V229I, Q96PU5”, the abundance fitness was -0.013 ± 0.099.
Work on “E3 ubiquitin-protein ligase NEDD4-like Y210V, Q96PU5” yielded an abundance fitness of -0.356 ± 0.069.
“E3 ubiquitin-protein ligase NEDD4-like V212G, Q96PU5” showed an abundance fitness of -0.417 ± 0.053.
With “E3 ubiquitin-protein ligase NEDD4-like V229T, Q96PU5” the abundance fitness was 0.018 ± 0.065.
Work on “E3 ubiquitin-protein ligase NEDD4-like E201F, Q96PU5” yielded an abundance fitness of -0.412 ± 0.14.
In the case of “E3 ubiquitin-protein ligase NEDD4-like V212E, Q96PU5”, the abundance fitness is reported as -0.068 ± 0.057.
For “E3 ubiquitin-protein ligase NEDD4-like P197I, Q96PU5”, the abundance fitness was 0.18 ± 0.11.
“E3 ubiquitin-protein ligase NEDD4-like E200N, Q96PU5” showed an abundance fitness of -0.471 ± 0.13.
“E3 ubiquitin-protein ligase NEDD4-like Q187D, Q96PU5” gave an abundance fitness of -0.167 ± 0.097.
Work on “E3 ubiquitin-protein ligase NEDD4-like P196F, Q96PU5” yielded an abundance fitness of -0.567 ± 0.098.
“E3 ubiquitin-protein ligase NEDD4-like R208A, Q96PU5” showed an abundance fitness of 0.036 ± 0.062.
Work on “E3 ubiquitin-protein ligase NEDD4-like P196A, Q96PU5” yielded an abundance fitness of -0.01 ± 0.07.
In the case of “E3 ubiquitin-protein ligase NEDD4-like T218R, Q96PU5”, the abundance fitness is reported as -0.184 ± 0.058.
For “E3 ubiquitin-protein ligase NEDD4-like E189N, Q96PU5”, the abundance fitness was 0.222 ± 0.095.
Work on “E3 ubiquitin-protein ligase NEDD4-like G198M, Q96PU5” yielded an abundance fitness of -0.058 ± 0.092.
For “E3 ubiquitin-protein ligase NEDD4-like H222R, Q96PU5”, the abundance fitness was -0.016 ± 0.057.
Work on “E3 ubiquitin-protein ligase NEDD4-like P194C, Q96PU5” yielded an abundance fitness of -0.147 ± 0.076.
Work on “E3 ubiquitin-protein ligase NEDD4-like W221N, Q96PU5” yielded an abundance fitness of -0.402 ± 0.11.
